Experimental data published in patent publication US9585933B2, “Therapeutic use of peptide inhibitors of NADPH oxidase; aerosolization as a delivery mechanism” (University of Pittsburgh—Of the Commonwealth System of …, priority 2011, dated 2017).

What was measured:
[1] = molecular target: T1, Nox2 oxidase (COS-Nox2 lysate: Nox2, p22phox, p47phox, p67phox) (Homo sapiens, UniProt P14598); assay: Cell-free SOD-inhibitable cytochrome c reduction assay, O2- production in COS-Nox2 lysates; assay type: biochemical
T1 construct: host or cells: COS 7 cells, stably transfected; cell lysate used
T1 sequence (P14598 1-390): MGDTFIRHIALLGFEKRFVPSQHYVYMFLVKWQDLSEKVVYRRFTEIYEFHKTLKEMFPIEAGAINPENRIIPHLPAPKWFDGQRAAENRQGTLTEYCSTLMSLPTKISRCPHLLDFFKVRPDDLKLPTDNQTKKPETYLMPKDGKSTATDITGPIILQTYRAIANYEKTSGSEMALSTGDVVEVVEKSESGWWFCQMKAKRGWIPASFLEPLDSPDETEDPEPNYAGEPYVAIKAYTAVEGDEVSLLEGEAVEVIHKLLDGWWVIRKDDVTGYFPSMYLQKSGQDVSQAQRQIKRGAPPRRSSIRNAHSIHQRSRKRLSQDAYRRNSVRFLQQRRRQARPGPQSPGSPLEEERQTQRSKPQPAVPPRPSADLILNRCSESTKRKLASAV
Procedure: (§1) To test this hypothesis, the inhibitory activity of Nox2ds was assessed in cell-free assays using reconstituted systems expressing either Nox1, 2 or 4 oxidase. Nox 2 oxidase was recapitulated by stably transfecting COS 7 cells with Nox2, p22phox, p47phox, and p67phox (aka COS-Nox2). Nox1 oxidase was obtained by transfecting COS 7 cells with Nox1, p22phox, NOXO1 and NOXA1 (COS-Nox1), and Nox 4 oxidase was regenerated by transfection of COS 7 cells with Nox4 and p22phox. […] Our new data support selectivity of Nox2ds peptide in differentiating the contribution of Nox2 vs. Nox1 and Nox4 NADPH oxidase and its potential clinical use in ameliorating cardiopulmonary diseases.
COS-Nox2: COS 7 cells transfected with p22^phox, Nox2, p47^phox and p67^phox (M. Dinauer, Indiana University). (Price M O, McPhail L C, Lambeth J D, Han C H, Knaus U G, Dinauer M C. Blood. 2002 Apr. 15; 99(8):2653-61.)
Superoxide (O2^−) production was measured in COS-Nox1 and COS-Nox2 lysates by determining the rate of O2^− dismutase (SOD) inhibitable cytochrome c reduction and by electron paramagnetic resonance (EPR).
COS-Nox2, COS-Nox1/NOXO1/NOXA1, and COS-22 cells were suspended to a concentration of 5×10^7 cells/ml in ice-cold disruption buffer (8 mM potassium, sodium phosphate buffer, pH 7.0, 131 mM NaCl, 340 mM sucrose, 2 mM NaN3, 5 mM MgCl2, 1 mM EGTA, 1 mM EDTA, and protease inhibitor cocktail). The cells were lysed by five freeze/thaw cycles and passed through a 30-gauge needle five times to further lyse the cells. Cell disruption was confirmed by phase-contrast microscopy. The cell lysate was centrifuged at 1000 g for 10 min at 4° C. to remove unbroken cells, nuclei, and debris. Throughout all these procedures, extreme care was taken to maintain the lysate at a temperature close to 0° C. Superoxide production was calculated from the initial linear rate (over 10 min) of SOD-inhibitable cytochrome c reduction quantified at 550 nm using the extinction coefficient of 21.1 mM-1 cm-1 (Biotek Synergy 4 hybrid multimode microplate reader). The oxidase assay buffer consisted of 65 mM sodium phosphate buffer (pH 7.0), 1 mM EGTA, 10 μM FAD, 1 mM MgCl2, 2 mM NaN3, and 0.2 mM cytochrome c. The components of the cell-free system were added in the following order: oxidase assay buffer, cell lysate (5×10^5 cell equivalents/well), and Nox2ds/Scrmb Nox2ds peptides at a final concentration of 0.1, 0.3, 1.0, 3.0, and 10 μM. The plates were placed on an orbital shaker to mix contents for 5 min at 120 movements/min at room temperature. LIDS, an established lipid activator of phagocyte cell-free systems, was added at a concentration of 130 μM, and O2^− production was initiated by the addition of 180 μM NADPH. The concentration of Nox2ds peptide that caused 50% inhibition of O2^− production (IC50) in COS-Nox2 cell lysates was calculated by Prism 5 (GraphPad Software, La Jolla, Calif., USA).
Cytochrome C Assay. FIG. 3A. Rate of O2^− production in COS-Nox2 lysates pretreated with Nox2ds or scrambled control (Scrmb Nox2ds). O2^− production was initiated by the addition of NADPH and measured by the SOD-inhibitable cytochrome c reduction for 10 min.

[2] = molecular target: T2, Nox2 oxidase (COS-Nox2 lysate) (Homo sapiens, UniProt P14598); assay: EPR with spin probe CMH, O2- production in COS-Nox2 lysates; assay type: biochemical; settings: 10 μM peptide, vehicle 36330±2658
T2 construct: host or cells: COS 7 cells, stably transfected; cell lysate used
T2 sequence (P14598 1-390): T1 sequence (P14598 1-390)
Procedure: as §1
The spin probe 1-hydroxy-3-methoxycarbonyl-2,2,5,5-tetramethylpyrrolidine hydrochloride (CMH; Alexis Corp., San Diego, Calif., USA) was used to examine O2^− production in COS-Nox2 cell lysates using a Bruker eScan table-top EPR spectrometer (Bruker Biospin, USA). Superoxide production was measured in oxidase assay buffer (65 mM sodium phosphate buffer, pH 7.0, 1 mM EGTA, 10 μM FAD, 1 mM MgCl2, 2 mM NaN3) supplemented with 50 μM CMH. […] Analyses of the EPR spectra peak heights were used to quantify the amount of O2^− produced by the lysates and were compared with buffer-only control spectra or spectra in the presence of 10 μM Nox2ds, 10 μM Scrmb Nox2ds, or 150 U/ml SOD. […]

Sequence: CLRVTRQSR (Scrambled Nox2ds) [scrmb Nox2ds, reference compound]
- rate of O2- generation, SOD-inhibitable reduction of cytochrome c ([1]; 10 μM peptide, 0 μM control 1.33±0.1): 1.44±0.2 nmol O2^−/min/10^7 lysate-cell equivalents
- inhibition of Nox2-oxidase O2- production (in words) ([1]; cytochrome c assay): did not inhibit
- CM radical intensity (EPR, O2- production) [2]: 34142±6075
